In experiment [1] the target is HipB antitoxin from Haemophilus influenzae (HI0666.1) (H. influenzae (KW20 strain, ATCC 51907)) (UniProt P44034). The experiment is described as follows: cross-linking; chemical cross-linking of H. influenzae HipB with DMA and DMS cross-linkers, SDS-PAGE.
Experiment [2] addresses T1, HipA^C, C-terminal component of the split HipA toxin from Haemophilus influenzae (HI0665), His-tagged (H. influenzae (KW20 strain, ATCC 51907), UniProt P44033 1-343).
T1 construct: also called His-tagged HipA^C; not shown: His6, N-terminal, kept
T1 sequence: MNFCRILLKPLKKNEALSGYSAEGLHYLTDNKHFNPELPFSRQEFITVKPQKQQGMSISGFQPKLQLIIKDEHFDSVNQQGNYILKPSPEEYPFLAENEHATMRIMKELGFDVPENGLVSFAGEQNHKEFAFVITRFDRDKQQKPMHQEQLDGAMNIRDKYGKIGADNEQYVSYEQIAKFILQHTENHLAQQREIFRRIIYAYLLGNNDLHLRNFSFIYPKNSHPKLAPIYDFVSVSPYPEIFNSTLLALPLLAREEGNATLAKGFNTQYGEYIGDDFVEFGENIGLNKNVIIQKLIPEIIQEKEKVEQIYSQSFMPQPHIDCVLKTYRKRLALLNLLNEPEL
The experiment is described as follows: pull-down. The following applies: partners not purified.

Results on two molecules are retold here after paper PMC9438503, “The Haemophilus influenzae HipBA toxin–antitoxin system adopts an unusual three-component regulatory mechanism” (IUCrJ, 2022).

A word on the stoichiometry N: it is a count of units in the complex or per binding partner.

Take “HipB antitoxin from Haemophilus influenzae (HI0666.1) (from UniProt P44034 1-106) (natural protein)”: in experiment [1], the stoichiometry N came out at 2.

B1: HipA^N, N-terminal component of the split HipA toxin from Haemophilus influenzae (HI0666) (natural protein)
chain: MRDLVRSGKVFLYGEFIGLLREDHRGFHFSYNPDYQGIPLSLSFPIEQSPFHSDTLFPYFASLVPEGWLKHKYALHQRIDESDMFRFLLNNGENMLGAVQIQEEKQ
Regarding B1, in experiment [2], the binding result is recorded as “binds”.
